B1: PR8 NS1 effector domain (ED), wild type, residues 73-230 (domain or fragment)
chain: SDEALKMTMASVPASRYLTDMTLEEMSRDWSMLIPKQKVAGPLCIRMDQAIMDKNIILKANFSVIFDRLETLILLRAFTEEGAIVGEISPLPSLPGHTAEDVKNAVGVLIGGLEWNDNTVRVSETLQRFAWRSSNENGRPPLTPKQKREMAGTIRSEV
notes: also called PR8 ED; PR8 NS1 ED
B2: Alb/76 NS1 effector domain (ED), residues 73-230 (domain or fragment)
chain: TDENLKIAIASSPAPRYITDMSIEEISREWYMLMPRQKITGGLMVKMDQAIMDKRITLKANFSVLFDQLETLVSLRAFTDDGAIVAEISPIPSMPGHSTEDVKNAIGILIGGLEWNDNSIRASENIQRFAWGIRDENGGPPLPPKQKRYMARRVESEV
notes: also called Alb/76 ED; Alb/76 NS1 ED

Biological target: the molecule itself
Assay: SEC; gel filtration of the purified EDs; data not shown

Protein | stoichiometry N
B1 | 2
B2 | 2

— paper PMC3065461, “A Transient Homotypic Interaction Model for the Influenza A Virus NS1 Protein Effector Domain” (PLoS ONE, 2011)
